T1: human NMI (N-myc Interacting protein), recombinant protein (human, UniProt Q13287 1-307, limits assumed)
T1 construct: Gene ID: 9111; also called hNMI; antigen
T1 sequence (looked up): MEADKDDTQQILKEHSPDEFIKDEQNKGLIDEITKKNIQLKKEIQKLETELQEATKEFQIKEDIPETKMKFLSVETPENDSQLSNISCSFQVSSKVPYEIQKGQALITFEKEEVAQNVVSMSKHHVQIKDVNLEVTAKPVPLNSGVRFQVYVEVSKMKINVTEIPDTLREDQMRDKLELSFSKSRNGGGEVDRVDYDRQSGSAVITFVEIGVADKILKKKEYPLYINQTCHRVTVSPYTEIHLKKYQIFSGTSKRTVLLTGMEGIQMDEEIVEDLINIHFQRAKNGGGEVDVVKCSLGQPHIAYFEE


Experiments:
[1] = biological target: T1, human NMI (N-myc Interacting protein), …; assay: sandwich ELISA; detection 94C4-1-biotin 0.5µg/mL; hNMI 3,125.000 pg/mL
[2] = biological target: T1, human NMI (N-myc Interacting protein), …; assay: sandwich ELISA; detection 94C4-1-biotin 0.5µg/mL; hNMI 50,000.000 pg/mL
[3] = biological target: T1, human NMI (N-myc Interacting protein), …; assay: sandwich ELISA; detection 94C4-1-biotin 0.5µg/mL; hNMI 6,250.000 pg/mL
[4] = biological target: T1, human NMI (N-myc Interacting protein), …; assay: sandwich ELISA; detection 94C4-1-biotin 1µg/mL; hNMI 1,562.500 pg/mL
[5] = biological target: T1, human NMI (N-myc Interacting protein), …; assay: sandwich ELISA; detection 94C4-1-biotin 0.5µg/mL; hNMI 48.828 pg/mL
[6] = biological target: T1, human NMI (N-myc Interacting protein), …; assay: sandwich ELISA; detection 94C4-1-biotin 0.5µg/mL; hNMI 195.313 pg/mL
[7] = biological target: T1, human NMI (N-myc Interacting protein), …; assay: sandwich ELISA; detection 94C4-1-biotin 1µg/mL; hNMI 97.656 pg/mL
[8] = biological target: T1, human NMI (N-myc Interacting protein), …; assay: sandwich ELISA; detection 94C4-1-biotin 1µg/mL; hNMI 781.250 pg/mL
[9] = biological target: T1, human NMI (N-myc Interacting protein), …; assay: sandwich ELISA; detection 94C4-1-biotin 1µg/mL; hNMI 195.313 pg/mL
[10] = biological target: T1, human NMI (N-myc Interacting protein), …; assay: sandwich ELISA; detection 94C4-1-biotin 0.5µg/mL; hNMI 1,562.500 pg/mL
[11] = biological target: T1, human NMI (N-myc Interacting protein), …; assay: sandwich ELISA; detection 94C4-1-biotin 0.5µg/mL; hNMI 97.656 pg/mL
[12] = biological target: T1, human NMI (N-myc Interacting protein), …; assay: sandwich ELISA; detection 94C4-1-biotin 1µg/mL; hNMI 50,000.000 pg/mL
[13] = biological target: T1, human NMI (N-myc Interacting protein), …; assay: sandwich ELISA; detection 94C4-1-biotin 0.5µg/mL; hNMI 25,000.000 pg/mL
[14] = biological target: T1, human NMI (N-myc Interacting protein), …; assay: sandwich ELISA; detection 94C4-1-biotin 1µg/mL; hNMI 48.828 pg/mL
[15] = biological target: T1, human NMI (N-myc Interacting protein), …; assay: ELISA, binding to hNMI
[16] = biological target: T1, human NMI (N-myc Interacting protein), …; assay: indirect ELISA, coated hNMI
[17] = biological target: T1, human NMI (N-myc Interacting protein), …; assay: sandwich ELISA; detection 94C4-1-biotin 1µg/mL; hNMI 6,250.000 pg/mL
[18] = biological target: T1, human NMI (N-myc Interacting protein), …; assay: sandwich ELISA; detection 94C4-1-biotin 1µg/mL; hNMI 3,125.000 pg/mL
[19] = biological target: T1, human NMI (N-myc Interacting protein), …; assay: ELISA, binding to hNMI; remark: listed apart in the source
[20] = biological target: T1, human NMI (N-myc Interacting protein), …; assay: sandwich ELISA; detection 94C4-1-biotin 1µg/mL; hNMI 25,000.000 pg/mL
[21] = biological target: T1, human NMI (N-myc Interacting protein), …; assay: sandwich ELISA; detection 94C4-1-biotin 1µg/mL; hNMI 390.625 pg/mL
[22] = biological target: T1, human NMI (N-myc Interacting protein), …; assay: sandwich ELISA; detection 94C4-1-biotin 0.5µg/mL; hNMI 781.250 pg/mL
[23] = biological target: T1, human NMI (N-myc Interacting protein), …; assay: sandwich ELISA; detection 94C4-1-biotin 1µg/mL; hNMI 12,500.000 pg/mL
[24] = biological target: T1, human NMI (N-myc Interacting protein), …; assay: sandwich ELISA; detection 94C4-1-biotin 0.5µg/mL; hNMI 390.625 pg/mL
[25] = biological target: T1, human NMI (N-myc Interacting protein), …; assay: sandwich ELISA; detection 94C4-1-biotin 0.5µg/mL; hNMI 12,500.000 pg/mL

| OD450 [1] | OD450 [2] | OD450 [3] | OD450 [4] | OD450 [5] | OD450 [6] | OD450 [7] | OD450 [8] | OD450 [9] | OD450 [10] | OD450 [11] | OD450 [12] | OD450 [13] | OD450 [14] | EC50 [16] | OD450 [17] | OD450 [18] | OD450 [20] | OD450 [21] | OD450 [22] | Binder | further results |
| --- | --- | --- | --- | --- | --- | --- | --- | --- | --- | --- | --- | --- | --- | --- | --- | --- | --- | --- | --- | --- | --- |
| 0.958 OD450 | 3.25 OD450 | 1.6 OD450 | 0.525 OD450 | 0.108 OD450 | 0.159 OD450 | 0.149 OD450 | 0.341 OD450 | 0.179 OD450 | 0.596 OD450 | 0.126 OD450 | 3.04 OD450 | 2.87 OD450 | 0.134 OD450 | 0.071 µg/mL | 1.53 OD450 | 0.903 OD450 | 2.74 OD450 | 0.233 OD450 | 0.377 OD450 | monoclonal antibody 98G10 (antibody, V domains shown, Rabbit monoclonal antibody) VH: QEQLEESGGDLVKPEGSLTLTCTASGFSFSASYWICWVRQAPGKGLEWIACIYGGSSGSAYYASWAKGRFTISKTSSTTVTLQMTSLTAADTATYFCARAGYYNYGSAGDIYPSSFKLWGPGTLVTVSS VL: DIVMTQTPASVEAAVGGTVTINCQASQSISTALAWYQQKPGQPPKLLIYTASKVASGVPSRFSGSGSGTQFTLTISDLECADAATYYCQNYYYSSSSITFGGGTEVVVK | EC50 [15]: 0.165 nM; EC50 [19]: 0.031 µg/mL; OD450 [23]: 2.31 OD450; OD450 [24]: 0.219 OD450; OD450 [25]: 2.44 OD450 |
| 0.96 OD450 | 3.16 OD450 | 1.56 OD450 | 0.547 OD450 | 0.13 OD450 | 0.179 OD450 | 0.169 OD450 | 0.381 OD450 | 0.207 OD450 | 0.593 OD450 | 0.143 OD450 | 3.1 OD450 | 2.75 OD450 | 0.145 OD450 | 0.0535 µg/mL | 1.52 OD450 | 0.932 OD450 | 2.75 OD450 | 0.251 OD450 | 0.387 OD450 | monoclonal antibody 39B4 (antibody, V domains shown, Rabbit monoclonal antibody; also called 39B4-1) VH: QEQLVESGGGLVQPEGSLTLTCTASGFSFSSSYWICWVRQAPGKGLEWIACIYAGTSGSTYYASWAKGRFTISKTSSTTVDLQMNSLTAADTATYFCARAGYYTYGAGVYIYPSSFKLWGPGTLVTVSS VL: DVVMTQTPASVEAAVGGTVTIKCQASESIGNALAWYQQKPGQPPKLLIYSASNLASGVPSRFSGSGSGTQFTLTISDLECADAATYYCQSYYYSSSSITFGGGTEVVVK | OD450 [23]: 2.15 OD450; OD450 [24]: 0.25 OD450; OD450 [25]: 2.3 OD450 |

From patent EP4682166A1 (Guangzhou Enmai Biotechnology Co., Ltd, dated 2026)
